Measurements taken from publication PMC6692406, “Optimization of a reduced enzymatic reaction cascade for the production of L-alanine” (Scientific Reports, 2019).

What was measured:
[1] = biological target: T1, CcDHAD (dihydroxyacid dehydratase) (Caulobacter vibrioides, UniProt Q9A9Z2); test: inhibition of D-gluconate dehydration (experimental analysis in Figure S2); assay type: biochemical
T1 construct: gene xylD; codon-optimised gene in pET28a, recombinant in E. coli BL21(DE3), purified on His GraviTrap; MnCl2 added before freezing
T1 sequence (Q9A9Z2 1-595): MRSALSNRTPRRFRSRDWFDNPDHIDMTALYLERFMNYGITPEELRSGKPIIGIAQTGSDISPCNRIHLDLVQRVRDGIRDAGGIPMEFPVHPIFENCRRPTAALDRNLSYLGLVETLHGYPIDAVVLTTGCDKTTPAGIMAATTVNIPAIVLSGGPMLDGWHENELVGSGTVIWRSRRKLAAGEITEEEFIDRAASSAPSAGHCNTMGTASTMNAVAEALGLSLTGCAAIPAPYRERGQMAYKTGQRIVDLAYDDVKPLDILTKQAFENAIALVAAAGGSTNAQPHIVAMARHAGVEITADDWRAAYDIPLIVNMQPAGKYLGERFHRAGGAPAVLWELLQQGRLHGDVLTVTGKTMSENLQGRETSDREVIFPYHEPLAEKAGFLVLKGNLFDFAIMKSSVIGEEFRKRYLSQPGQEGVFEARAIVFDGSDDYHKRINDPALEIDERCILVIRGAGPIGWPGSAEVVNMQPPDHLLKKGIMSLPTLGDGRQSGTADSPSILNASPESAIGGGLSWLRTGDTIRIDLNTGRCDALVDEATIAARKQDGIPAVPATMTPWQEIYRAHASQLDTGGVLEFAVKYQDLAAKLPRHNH

purified protein [2] = substrate: O=C(O)[C@H](O)[C@@H](O)[C@H](O)[C@H](O)CO; test: purified protein; assay type: biochemical, Caulobacter vibrioides; details: 0.2-20 mM D-gluconate, 1 mM NAD, 50 °C, 100 mM HEPES pH 7.35, 100 mM ammonium sulfate, enzyme stored with MnCl2
purified protein [3] = substrate: O=C(O)C(=O)C[C@H](O)[C@H](O)CO; test: purified protein; assay type: biochemical, Picrophilus oshimae; details: 0.03-3 mM KDG, 1 mM NAD, 50 °C, 100 mM HEPES pH 7.35, 100 mM ammonium sulfate
purified protein [4] = substrate: O=C[C@H](O)CO; test: purified protein; details: substrate not named in table (D-glyceraldehyde from the cascade), cofactor NAD, 50 °C, 100 mM HEPES pH 7.35, 100 mM ammonium sulfate
purified protein [5] = substrate: NC(=O)c1ccc[n+]([C@@H]2O[C@H](COP(=O)(O)OP(=O)(O)OC[C@H]3O[C@@H](n4cnc5c(N)ncnc54)[C@H](O)[C@@H]3O)[C@@H](O)[C@H]2O)c1; test: purified protein; assay type: biochemical, Methanocaldococcus jannaschii; details: 50 °C, 100 mM HEPES pH 7.35, 100 mM ammonium sulfate, varied: cofactor
purified protein [6] = substrate: CC(=O)C(=O)O; test: purified protein; assay type: biochemical, Archaeoglobus fulgidus; details: 0.1-1 mM pyruvate, 0.2 mM NADH, 100 mM (NH4)2SO4, 50 °C, 100 mM HEPES pH 7.35
purified protein [7] = substrate: NC(=O)C1=CN([C@@H]2O[C@H](COP(=O)(O)OP(=O)(O)OC[C@H]3O[C@@H](n4cnc5c(N)ncnc54)[C@H](O)[C@@H]3O)[C@@H](O)[C@H]2O)C=CC1; test: purified protein; assay type: biochemical, Archaeoglobus fulgidus; details: 0.005-0.3 mM NADH, 1 mM pyruvate, 100 mM (NH4)2SO4, 50 °C, 100 mM HEPES pH 7.35, varied: cofactor

O=C(O)[C@H](O)CO [D-glycerate]
Ki [1]: ~500 µM

B1: CcDHAD (dihydroxyacid dehydratase) (Caulobacter vibrioides CB15) (protein)
chain: T1 sequence (Q9A9Z2 1-595)
notes: codon-optimised gene in pET28a, recombinant in E. coli BL21(DE3), purified on His GraviTrap; MnCl2 added before freezing
Km (purified protein [2]): 3200 µM

B2: PtKDGA (2-keto-3-deoxygluconate aldolase) (Picrophilus oshimae DSM 9789) (protein)
chain: MITPLDAHGNIDYNATNILIKYLEGINVDYLFPMGSTGVFPYFTLKERKDFLKFVRENSKKPIMAGVGSSSINEVNELMKFSMDIGIEAAVLMPPYYIKLNQEAIYHYYKEILSSNDMDLLIYNIPQFTNKIDPETVKNLKSEFSSVKGVKDSSADIRGFMEMLSLSDDDFAVFQGQDDLLFTSLELGASGGVCGTTNFSDGIVRLYHEYKNNREMALKIEKNDVIPLMKKLGKYQFPNAYYEYFYKKNNINGGYRPPMYRVGIEI
notes: codon-optimised gene in pET28a, recombinant in E. coli BL21(DE3), heat treated (65 °C) and purified on His GraviTrap
Km (purified protein [3]): 1100 µM

B3: MjALDH (aldehyde dehydrogenase) (Methanocaldococcus jannaschii DSM 2661) (protein)
chain: MFIDGKWINREDMDVINPYSLEVIKKIPALSREEAKEAIDTAEKYKEVMKNLPITKRYNILMNIAKQIKEKKEELAKILAIDAGKPIKQARVEVERSIGTFKLAAFYVKEHRDEVIPSDDRLIFTRREPVGIVGAITPFNFPLNLSAHKIAPAIATGNVIVHHPSSKAPLVCIELAKIIENALKKYNVPLGVYNLLTGAGEVVGDEIVVNEKVNMISFTGSSKVGELITKKAGFKKIALELGGVNPNIVLKDADLNKAVNALIKGSFIYAGQVCISVGMILVDESIADKFIEMFVNKAKVLNVGNPLDEKTDVGPLISVEHAEWVEKVVEKAIDEGGKLLLGGKRDKALFYPTILEVDRDNILCKTETFAPVIPIIRTNEEEMIDIANSTEYGLHSAIFTNDINKSLKFAENLEFGGVVINDSSLFRQDNMPFGGVKKSGLGREGVKYAMEEMSNIKTIIISK
notes: codon-optimised gene in pET28a (NcoI/XhoI), recombinant in E. coli BL21(DE3), purified by heat treatment (70 °C) and desalting
Km (purified protein [4]): 300 µM
Km (purified protein [5]): 300 µM

B4: AfAlaDH (L-alanine dehydrogenase) (Archaeoglobus fulgidus DSM 4304) (protein)
chain: METLILTQEEVESLISMDEAMNAVEEAFRLYALGKAQMPPKVYLEFEKGDLRAMPAHLMGYAGLKWVNSHPGNPDKGLPTVMALMILNSPETGFPLAVMDATYTTSLRTGAAGGIAAKYLARKNSSVFGFIGCGTQAYFQLEALRRVFDIGEVKAYDVREKAAKKFVSYCEDRGISASVQPAEEASRCDVLVTTTPSRKPVVKAEWVEEGTHINAIGADGPGKQELDVEILKKAKIVVDDLEQAKHGGEINVAVSKGVIGVEDVHATIGEVIAGLKDGRESDEEITIFDSTGLAIQDVAVAKVVYENALSKNVGSKIKFFRI
notes: codon-optimised gene in pET24a, recombinant in E. coli BL21(DE3), purified by heat treatment (70 °C) and desalting
Km (purified protein [6]): 200 µM
Km (purified protein [7]): 60 µM
